Here are results for one molecule from patent US20150185222A1 (TORAY INDUSTRIES, published 2015).

Test [1] has as its target human CAPRIN-1 expressed on the surface of human cancer cells and in human cancer tissues (human) (UniProt Q14444). The test is described as follows: flow cytometry on human cancer cell lines Caki-1, Caki-2, A498, T24, SKOV3, QG56, PC3, Hela, HT1080, T98G, U87MG, MNK28, Lovo, Capan-2, MIAPaCa-2, Panc-1, BxPC-3; control mouse IgG1. In general terms: In flow cytometry, cells or beads pass a laser one at a time.

Test [2] concerns the target T1, polypeptide consisting of the amino acid sequence of SEQ ID NO: 66 (human).
T1 peptide: QQPQAASPSVPE
The test is described as follows: trypsin or chymotrypsin digestion of antibody-CAPRIN-1 complex, protein G Sepharose, MS/MS of recovered peptides. Here is the method:
The cancer cell surface-reactive mouse-chicken chimeric anti-human CAPRIN-1 monoclonal antibody #12 obtained in the paragraph (4) was used to identify a CAPRIN-1 epitope region recognized thereby. 100 μg of recombinant CAPRIN-1 proteins was dissolved in a protein inhibitor-free dissolving buffer and reacted with the mouse-chicken chimeric anti-human CAPRIN-1 monoclonal antibody #12. To this solution, a digestive enzyme trypsin or chymotrypsin was added, followed by digestion reaction at a suitable temperature. After the reaction, a protein G Sepharose carrier was added thereto, then reacted, and precipitated by centrifugation operation. After removal of the supernatant, the carrier was washed with a dissolving buffer and PBS and dissolved in 0.1% formic acid, and the supernatant was recovered. The recovered supernatant sample was applied to a reverse-phase column (HLB Extraction Cartridge (Waters-OASIS)) to obtain an antibody-free sample solution. The obtained sample was subjected to reverse-phase liquid chromatography (Chromatography Nanosytem (KYA Technologies Corp.)) to recover a solution containing only peptides. The solution was introduced to a tandem-type mass spectrometer Quadrupole-TOF Mass Spectrometer (Waters-MicroMass) and analyzed by MS/MS to detect the peptides contained in the sample. […]

The target in test [3] is human CAPRIN-1 expressed on the surface of human cancer cells and in human cancer tissues (human) (UniProt Q14444). The test is described as follows: flow cytometry, 2 µg antibody on 8 human breast cancer cell lines (ZR75-1, MCF7, T47D, SK-BR-3, MDA-MB-157, BT-20, MDA-MB-231V, MRK-nu-1); control mouse IgG1.

B1: mouse-chicken chimeric anti-human CAPRIN-1 monoclonal antibody #12 (antibody, mouse IgG1, V domains shown)
VH: AVTLDESGGGLQMSRGGLSLVCKASGFDFSSYQMNWIRQAPGKGLEFVAAINKFGNSTGHGAAVKGRVTISRDNGQSTVRLQLNNLRAEDTAIYFCTKHAYGYCGSGTWCAAGEIDAWGHGTEVIVSS
VL: QAASTQPSSVSANPGETVEITCSGGGSYSYGWFQQKSPGSAPVTVIYYNNKRPSDIPSRFSGSKSGSTGTLTITGVQADDEAVYYCGSGDSTDTAVFGAGTTLTVLG
notes: Variable regions of chicken antibody #11 with the constant regions of mouse IgG1 (H chain and L chain constant regions); produced in CHO-K1; also called mouse-chicken anti-human CAPRIN-1 monoclonal antibody (#12)
As to B1, the rate of increase in mean fluorescence intensity (MFI) over control in test [1] and in test [3] was greater than 35% in each case. Moreover, the binding result in test [2] is recorded as “binds”.
